B1: 153/154 PS/PS (dsDNA)
DNA 1: AGTTGAGGACTTTCCAGGC
DNA 2: GCCTGGAAAGTCCTCAACT
modifications: full PS, both strands
B2: decoy 153/154 E-Z (dsDNA)
DNA 1: AGTTGAGGACTTTCCAGGC
DNA 2: GCCTGGAAAGTCCTCAACT
B3: decoy 227 H-V (dsDNA)
DNA 1: TCGGATTTCCTC
DNA 2: GAGGAAATCCGA
B4: 153/154 PO (dsDNA)
DNA 1: AGTTGAGGACTTTCCAGGC
DNA 2: GCCTGGAAAGTCCTCAACT
modifications: full phosphodiester, both strands
B5: 153/154 PO/H11 (dsDNA)
DNA 1: AGTTGAGGACTTTCCAGGC
DNA 2: GCCTGGAAAGTCCTCAACT
modifications: strand 153 PO; strand 154 PS at the 11 3'-most linkages
B6: decoy 197 C-W (dsDNA)
DNA 1: CTCGGGGACTTTCCCTGT
DNA 2: ACAGGGAAAGTCCCCGAG
B7: decoy 239 C-W' (dsDNA)
DNA 1: CTCGGGGACTTTCCCTCA
DNA 2: TGAGGGAAAGTCCCCGAG
B8: decoy 195 C-V (dsDNA)
DNA 1: TCGGGGACTTTCCCTC
DNA 2: GAGGGAAAGTCCCCGA
B9: 153/154 H8/H10 (dsDNA)
DNA 1: AGTTGAGGACTTTCCAGGC
DNA 2: GCCTGGAAAGTCCTCAACT
modifications: PS at the 8 (153) and 10 (154) 3'-most linkages
B10: decoy 263 H-Z (dsDNA)
DNA 1: AGTTGAGGATTTCCAGGC
DNA 2: GCCTGGAAATCCTCAACT
B11: decoy 129 D-V (dsDNA)
DNA 1: TCGGGATTTCCTC
DNA 2: GAGGAAATCCCGA
B12: 153/154 H6/H6 (dsDNA)
DNA 1: AGTTGAGGACTTTCCAGGC
DNA 2: GCCTGGAAAGTCCTCAACT
modifications: PS at the 6 3'-most linkages of each strand
B13: 153/154 H11/H11 (dsDNA)
DNA 1: AGTTGAGGACTTTCCAGGC
DNA 2: GCCTGGAAAGTCCTCAACT
modifications: PS at the 11 3'-most linkages of each strand
B14: 153/154 H3/H3 (dsDNA)
DNA 1: AGTTGAGGACTTTCCAGGC
DNA 2: GCCTGGAAAGTCCTCAACT
modifications: PS at the 3 3'-most linkages of each strand
B15: 153/154 H8/H8 (dsDNA)
DNA 1: AGTTGAGGACTTTCCAGGC
DNA 2: GCCTGGAAAGTCCTCAACT
modifications: PS at the 8 3'-most linkages of each strand
B16: 153/154 H11/PO (dsDNA)
DNA 1: AGTTGAGGACTTTCCAGGC
DNA 2: GCCTGGAAAGTCCTCAACT
modifications: strand 153 PS at the 11 3'-most linkages; strand 154 PO
B17: 153/154 PS/PO (dsDNA)
DNA 1: AGTTGAGGACTTTCCAGGC
DNA 2: GCCTGGAAAGTCCTCAACT
modifications: strand 153 full PS; strand 154 PO
B18: decoy 141 A-Z-2 (dsDNA)
DNA 1: GTTGAGGGACTTTCCAGG
DNA 2: CCTGGAAAGTCCCTCAAC
B19: decoy 191 A-X (dsDNA)
DNA 1: CTGGGACTTTCCTC
DNA 2: GAGGAAAGTCCCAG
B20: decoy 279 E-Z A->C EVEN (dsDNA)
DNA 1: TTGCGGACTTTCCAGGC
DNA 2: GCCTGGAAAGTCCGCAA
B21: 153/154 H7/H7 (dsDNA)
DNA 1: AGTTGAGGACTTTCCAGGC
DNA 2: GCCTGGAAAGTCCTCAACT
modifications: PS at the 7 3'-most linkages of each strand
B22: 153/154 PO/H5 (dsDNA)
DNA 1: AGTTGAGGACTTTCCAGGC
DNA 2: GCCTGGAAAGTCCTCAACT
modifications: strand 153 PO; strand 154 PS at the 5 3'-most linkages
B23: 153/154 PO/PS (dsDNA)
DNA 1: AGTTGAGGACTTTCCAGGC
DNA 2: GCCTGGAAAGTCCTCAACT
modifications: strand 153 PO; strand 154 full PS
B24: decoy 259 E-Z' (dsDNA)
DNA 1: TTGAGGACTTTCCAGGCTC
DNA 2: GAGCCTGGAAAGTCCTCAA
B25: decoy 145 A-Z (dsDNA)
DNA 1: AGTTGAGGGACTTTCCAGGC
DNA 2: GCCTGGAAAGTCCCTCAACT
B26: decoy 221 C-X (dsDNA)
DNA 1: CTGGGGACTTTCCCTC
DNA 2: GAGGGAAAGTCCCCAG
B27: decoy 265 I-Z (dsDNA)
DNA 1: AGTTGAGGATTTCCCAGGC
DNA 2: GCCTGGGAAATCCTCAACT
B28: decoy 235 L-V (dsDNA)
DNA 1: TCGGACTTTCCCTC
DNA 2: GAGGGAAAGTCCGA
B29: decoy 123 A-W (dsDNA)
DNA 1: CTCGGGACTTTCCTGT
DNA 2: ACAGGAAAGTCCCGAG
B30: 153/154 H4/H4 (dsDNA)
DNA 1: AGTTGAGGACTTTCCAGGC
DNA 2: GCCTGGAAAGTCCTCAACT
modifications: PS at the 4 3'-most linkages of each strand
B31: decoy 177 E-W (dsDNA)
DNA 1: CTCGGACTTTCCTGT
DNA 2: ACAGGAAAGTCCGAG
B32: 153/154 H5/PO (dsDNA)
DNA 1: AGTTGAGGACTTTCCAGGC
DNA 2: GCCTGGAAAGTCCTCAACT
modifications: strand 153 PS at the 5 3'-most linkages; strand 154 PO
B33: 153/154 H9/H9 (dsDNA)
DNA 1: AGTTGAGGACTTTCCAGGC
DNA 2: GCCTGGAAAGTCCTCAACT
modifications: PS at the 9 3'-most linkages of each strand
B34: decoy 117 E-U (dsDNA)
DNA 1: ATGGACTTTCCGT
DNA 2: ACGGAAAGTCCAT
B35: decoy 173 E-Z-4 (dsDNA)
DNA 1: TTGAGGACTTTCCAG
DNA 2: CTGGAAAGTCCTCAA
B36: decoy 151 D-Z (dsDNA)
DNA 1: AGTTGAGGGATTTCCAGGC
DNA 2: GCCTGGAAATCCCTCAACT
B37: decoy 281 E-Z EVEN (dsDNA)
DNA 1: TTGAGGACTTTCCAGGC
DNA 2: GCCTGGAAAGTCCTCAA
B38: 153/154 H5/H5 (dsDNA)
DNA 1: AGTTGAGGACTTTCCAGGC
DNA 2: GCCTGGAAAGTCCTCAACT
modifications: PS at the 5 3'-most linkages of each strand
B39: decoy 155 E-V (dsDNA)
DNA 1: TCGGACTTTCCTC
DNA 2: GAGGAAAGTCCGA
B40: 153/154 H10/H8 (dsDNA)
DNA 1: AGTTGAGGACTTTCCAGGC
DNA 2: GCCTGGAAAGTCCTCAACT
modifications: PS at the 10 (153) and 8 (154) 3'-most linkages
B41: decoy 207 L-Z (dsDNA)
DNA 1: AGTTGAGGACTTTCCCAGGC
DNA 2: GCCTGGGAAAGTCCTCAACT
B42: 153/154 H10/H10 (dsDNA)
DNA 1: AGTTGAGGACTTTCCAGGC
DNA 2: GCCTGGAAAGTCCTCAACT
modifications: PS at the 10 3'-most linkages of each strand
B43: decoy 289 (dsDNA)
DNA 1: TGAGGACTTTCCAGGC
DNA 2: GCCTGGAAAGTCCTCA
B44: decoy 309 M-T (dsDNA)
DNA 1: CCTTGAAGGGATTTCCCTCC
DNA 2: GGAGGGAAATCCCTTCAAGG
B45: decoy 295 (dsDNA)
DNA 1: TGAGGACTTTCCAGGCTC
DNA 2: GAGCCTGGAAAGTCCTCA
B46: decoy 121 A-V (dsDNA)
DNA 1: TCGGGACTTTCCTC
DNA 2: GAGGAAAGTCCCGA

Columns and labels:
[1] = molecular target: NF-kB p65/p50 heterodimer (RelA/NFKB1) (Homo sapiens, UniProt Q04206;P19838 Q04206:1-551,P19838:1-433); test: EMSA; competition vs 32P 113/114 probe; details: protein: extract; tags: none; nuclear extract of LPS-stimulated THP-1 cells
Excerpt: (§1) The EMSA assay was employed to characterize oligonucleotide decoys for the NF-κB transcription factor. […] Using the above modified oligonucleotides to compete for binding for the above-mentioned NF-κB family members, it was possible to compare the binding affinity of these oligonucleotides against the high affinity radiolabeled probe and each other. This assay has also enabled the design of a decoy which selectively binds particular members of the NF-κB family. By using increasing concentrations of various oligonucleotides, it was observed that, by deleting or changing targeted residues in the binding site, it was possible to specifically decrease the binding of the decoy molecule to p50/p50 homodimers, while retaining the affinity for p65/p50 and cRel/p50 heterodimers.
(§2) The NF-κB gel shift assays (EMSA) were performed as follows. A double-stranded oligonucleotide containing a consensus NF-κB binding site (5′ […] 3′) (SEQ ID NO: 78) was end-labeled with γ³²P-ATP using T4 Polynucleotide Kinase (Promega). Alternatively, a double-stranded ODN containing a consensus NF-κB binding site from the IL-6 promoter (5′ […] 3′) (SEQ ID NO: 94) was end-labeled with γ³²P-ATP using T4 Polynucleotide Kinase (Promega). One microgram of a nuclear extract prepared from LPS stimulated THP-1 cells (human monocyte cell line) was incubated with 35 fmol of radiolabeled probe in the presence or absence of competing unlabeled NF-κB double-stranded oligonucleotides (dsODN) or scrambled dsODN. The incubations were carried out at room temperature for 30 minutes in a 20 μl reaction volume composed of 10 mM Tris-HCl pH 8, 100 mM KCL, 5 mM MgCl2, 2 mM DTT, 10% Glycerol, 0.1% NP-40, 0.025% BSA and 1 μg Poly-dIdC. The reactions were loaded onto a 6% polyacrylamide gel, subjected to electrophoresis and dried. The dried gels were imaged and quantitated using a Typhoon 8600 PhosphorImager (Amersham) and ImageQuant software.

[2] = molecular target: NF-kB p50/p50 homodimer (NFKB1) (Homo sapiens, UniProt P19838 P19838:1-433); test: EMSA; competition vs 32P 113/114 probe; details: protein: extract; tags: none; nuclear extract of LPS-stimulated THP-1 cells; chain copies: 2 (stated homodimer)
Excerpt: as §1, §2

NF-kB p65/p50 heterodimer (RelA/NFKB1), sequence (Q04206 whole entry, chain 1 of 2): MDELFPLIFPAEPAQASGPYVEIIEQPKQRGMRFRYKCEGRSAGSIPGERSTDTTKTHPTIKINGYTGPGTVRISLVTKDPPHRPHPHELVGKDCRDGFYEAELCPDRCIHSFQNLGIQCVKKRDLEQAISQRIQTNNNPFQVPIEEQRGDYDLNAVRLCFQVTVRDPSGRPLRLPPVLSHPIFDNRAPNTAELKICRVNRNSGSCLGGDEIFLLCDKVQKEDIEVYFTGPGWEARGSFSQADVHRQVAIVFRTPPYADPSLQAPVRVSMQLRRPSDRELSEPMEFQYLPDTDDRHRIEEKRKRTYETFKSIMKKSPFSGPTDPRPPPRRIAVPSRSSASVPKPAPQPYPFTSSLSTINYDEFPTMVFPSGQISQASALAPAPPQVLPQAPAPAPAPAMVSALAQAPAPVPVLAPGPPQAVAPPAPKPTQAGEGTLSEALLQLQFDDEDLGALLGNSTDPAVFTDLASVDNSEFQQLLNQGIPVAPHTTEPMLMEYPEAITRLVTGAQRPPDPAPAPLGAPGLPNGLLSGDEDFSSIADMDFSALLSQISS
NF-kB p65/p50 heterodimer (RelA/NFKB1), sequence (P19838 1-433, chain 2 of 2): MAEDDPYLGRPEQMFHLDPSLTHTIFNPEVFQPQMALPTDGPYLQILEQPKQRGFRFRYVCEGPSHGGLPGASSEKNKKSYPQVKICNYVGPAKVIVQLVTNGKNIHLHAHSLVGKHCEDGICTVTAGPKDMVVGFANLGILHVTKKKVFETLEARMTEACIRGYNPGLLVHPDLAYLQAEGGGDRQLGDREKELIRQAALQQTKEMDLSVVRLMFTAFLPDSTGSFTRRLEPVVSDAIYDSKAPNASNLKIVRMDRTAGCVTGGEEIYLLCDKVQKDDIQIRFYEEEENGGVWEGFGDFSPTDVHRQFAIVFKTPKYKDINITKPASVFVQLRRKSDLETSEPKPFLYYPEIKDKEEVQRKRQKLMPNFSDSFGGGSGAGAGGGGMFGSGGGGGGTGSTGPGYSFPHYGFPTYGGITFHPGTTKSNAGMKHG
NF-kB p50/p50 homodimer (NFKB1), sequence (P19838 1-433, one chain of several): as the sequence (P19838 1-433, chain 2 of 2) above

| Binder | IC50 [1] [fold molar excess] | IC50 [2] [fold molar excess] |
| --- | --- | --- |
| B1 | 5 | – |
| B2 | 62.4 | 96 |
| B3 | 74 | – |
| B4 | 58 | 92 |
| B5 | 7.5 | 40 |
| B6 | 26 | 17.5 |
| B7 | 9 | 9 |
| B8 | 8.5 | 9 |
| B9 | 33 | – |
| B10 | 73 | 82 |
| B11 | 37.5 | 37.5 |
| B12 | 40 | – |
| B13 | 24 | 27 |
| B14 | 45 | – |
| B15 | 29 | – |
| B16 | 7.5 | – |
| B17 | 5 | 5 |
| B18 | 7.5 | 10 |
| B19 | 19 | 22.5 |
| B20 | 48 | 52 |
| B21 | 39 | – |
| B22 | 65 | – |
| B23 | 5 | 5 |

| Binder | IC50 [1] [fold molar excess] | IC50 [2] [fold molar excess] |
| --- | --- | --- |
| B24 | 87 | 85 |
| B25 | 8 | 8 |
| B26 | 25 | 25 |
| B27 | 54 | 84 |
| B28 | 37 | 62.5 |
| B29 | 8 | 10 |
| B30 | 85 | – |
| B31 | 57.5 | – |
| B32 | 59 | – |
| B33 | 17 | – |
| B34 | 72.5 | – |
| B35 | 55 | – |
| B36 | 36 | 69 |
| B37 | 87 | – |
| B38 | 50 | – |
| B39 | 81 | 97 |
| B40 | 9 | – |
| B41 | 20 | 45 |
| B42 | 21 | – |
| B43 | 93 | – |
| B44 | 45 | 50 |
| B45 | 92 | – |
| B46 | 25 | 34 |
